# Patent publication US20110293511A1 (LUDWIG INSTITUTE FOR CANCER RESEARCH, published 2011)
# Ends that are not written are not given here. * marks the point of attachment. Biotin = O=C1N[C@H]2[C@H](CS[C@H]2CCCCC(=O)*)N1
# Key:
# [1] = target: T1, anti-idiotype antibody LMH-12; experiment: sandwich ELISA: capture on plate-bound LMH-12 (10 µg/ml), detection with biotinylated LMH-12 and avidin-HRP
# T1 construct: mouse IgG1 kappa; also called clone 5B8; SB8
# [2] = target: T2, biotinylated de2-7 specific peptide (Biotin-LEEKKGNYVVTDH) (human); experiment: ELISA, biotinylated peptide on streptavidin plates
# T2 construct: also called unique de2-7 EGFR peptide
# T2 peptide: Biotin-LEEKKGNYVVTDH
# [3] = target: EGFR fragment 1-176, yeast-displayed (human, UniProt P00533 25-200); experiment: flow cytometry on yeast displaying the EGFR fragment, % positive cells
# [4] = target: EGFR fragment 475-621, yeast-displayed (human, UniProt P00533 499-645); experiment: as above
# [5] = target: T3, Peptide C, C-terminal biotinylated de2-7 peptide (human, C-terminal biotin; the reagent list prints it on an added lysine, LEEKKGNYVVTDH(K-Biot)-OH); experiment: BIAcore, Peptide C on streptavidin chip
# T3 peptide: LEEKKGNYVVTDH
# [6] = target: T4, de2-7 EGFR unique junctional peptide (human); experiment: dot-blot immune stain
# T4 construct: non-biotinylated; also called Junction Peptide
# T4 peptide: LEEKKGNYVVTDH-OH
# [7] = target: T5, EGFR fragment 1-294, yeast-displayed (human, UniProt P00533 25-318); experiment: flow cytometry, indirect immunofluorescence on yeast displaying EGFR fragment 1-294
# T5 construct: range 1-294
Binder,EC50 (read off the curve) [1] [µg/mL],binding result [2],binding result [3],binding result [4],binding result [5],binding result [6],binding result [7]
"chimeric antibody ch806 (antibody, human IgG1, V domains shown, also called chAb806) VH: DVQLQESGPSLVKPSQSLSLTCTVTGYSITSDFAWNWIRQFPGNKLEWMGYISYSGNTRYNPSLKSRISITRDTSKNQFFLQLNSVTIEDTATYYCVTAGRGFPYWGQGTLVTVSA VL: DILMTQSPSSMSVSLGDTVSITCHSSQDINSNIGWLQQRPGKSFKGLIYHGTNLDDEVPSRFSGSGSGADYSLTISSLESEDFADYYCVQYAQFPWTFGGGTKLEIKR",~0.6,–,–,–,–,–,–
"mAb806 (antibody, V domains shown, murine IgG2b) VH: DVQLQESGPSLVKPSQSLSLTCTVTGYSITSDFAWNWIRQFPGNKLEWMGYISYSGNTRYNPSLKSRISITRDTSKNQFFLQLNSVTIEDTATYYCVTAGRGFPYWGQGTLVTVSA VL: DILMTQSPSSMSVSLGDTVSITCHSSQDINSNIGWLQQRPGKSFKGLIYHGTNLDDEVPSRFSGSGSGADYSLTISSLESEDFADYYCVQYAQFPWTFGGGTKLEIKR",~0.07,no binding,no binding (tested: 10 µg/ml (single concentration)),no binding (tested: 10 µg/ml (single concentration)),no binding (tested: 100 nM),no binding,no binding (tested: 10 µg/ml (single concentration))
